Columns and labels:
[1] = test system: A2B5+ oligodendrocytes; experiment: Differentiation of A2B5+ oligodendrocytes treated with Sp35-Fc (O4 staining); type: cell-based, rat; conditions: increasing concentrations, versus control-Fc, FIG. 8
Protocol: Enriched populations of oligodendrocytes were grown from female Long Evans P2 rats as described by Conn, Meth. Neurosci. 2:1-4 (Academic Press; 1990) with modifications as follows. Briefly, the forebrain was dissected and placed in Hank's buffered salt solution (HBSS; Invitrogen). The tissue was cut into 1-mm fragments and was incubated at 37° C. for 15 min in 0.01% trypsin and 10 μg/ml DNase. Dissociated cells were plated on poly-L-lysine-coated T75 tissue culture flasks and were grown at 37° C. for 10 d in DMEM medium with 20% fetal calf serum (Invitrogen). Oligodendrocyte precursors (A2B5+) were collected by shaking the flask overnight at 200 rpm at 37° C., resulting in a 95% pure population. […] These differentiation states are readily apparent from changes in morphology: A2B5^+ cells are bipolar in shape, O4^+ premyelinating oligodendrocytes have longer and more branched processes and MBP^+ mature oligodendrocytes contain myelin sheet structures between processes.
A2B5^+ oligodendrocytes, prepared as described in Example 1, were treated with increasing concentrations of Sp35-Fc or control-Fc for 3 days (Sp35-Fc was prepared as described in Example 2). […] After 48 h (72 h for RNAi), cultures were stained with antibody to O4, and the number of total O4+ and mature O4+ oligodendrocytes was quantified. Samples were analyzed in duplicate. […]

[2] = test system: spinal cord injury rats; experiment: Spinal cord injury (dorsal hemisection T6/T7), intrathecal mini-osmotic pump; type: in vivo, rat
Protocol: Spinal cord injury was induced in adult female Long Evans rats (190-210 g; Charles River). A dorsal hemisection was performed at T6/T7, completely interrupting the main dorsomedial and the minor dorsolateral corticospinal tract (CST) components. The cord was sterotaxically transected at a depth of 1.8 mm from the surface using a microscalpel. […] Postoperative care comprised analgesia (Buprenorphine/Buprenex, Reckitt Benckiset Healthcare Ltd., 0.05 mg/kg subcutaneously) every 8-12 hours for 3 days and antibiotic treatment (ampicillin, Bristol Myers Squibb, 100 mg/kg subcutaneously twice daily) for 7 days after surgery. Bladders were expressed manually twice a day for the duration of the study (4 weeks) or until return of function. On completion of the study, rats were anesthetized and trans-cardially perfused with heparinized saline followed by 4% paraformaldehyde (PFA). The spinal cords were removed, embedded in paraffin, and 10 μm sections were cut from for histological analysis.
To quantify apoptotic cell death after SCI, animals were euthanized 3 or 7 days after SCI and stained using anti-activated-Caspase-3 antibody (Cell Signaling Technologies) and TUNEL staining (Promega). The sections were also stained with anti-NeuN antibody (Chemicon) and anti-CC1 antibody (Calbiochem) to identify neurons and oligodendrocytes, respectively.

B1: Sp35-Fc: extra-cellular portion of human Sp35 (residues 1-532) fused to the hinge and Fc region of human IgG1 (protein)
chain: TGCPPRCECSAQDRAVLCHRKRFVAVPEGIPTETRLLDLGKNRIKTLNQDEFASFPHLEELELNENIVSAVEPGAFNNLFNLRTLGLRSNRLKLIPLGVFTGLSNLTKLDISENKIVILLDYMFQDLYNLKSLEVGDNDLVYISHRAFSGLNSLEQLTLEKCNLTSIPTEALSHLHGLIVLRLRHLNINAIRDYSFKRLYRLKVLEISHWPYLDTMTPNCLYGLNLTSLSITHCNLTAVPYLAVRHLVYLRFLNLSYNPISTIEGSMLHELLRLQEIQLVGGQLAVVEPYAFRGLNYLRVLNVSGNQLTTLEESVFHSVGNLETLILDSNPLACDCRLLWVFRRRWRLNFNRQQPTCATPEFVQGKEFKDFPDVLLPNYFTCRRARIRDRKAQQVFVDEGHTVQFVCRADGDPPPAILWLSPRKHLVSAKSNGRLTVFPDGTLEVRYAQVQDNGTYLCIAANAGGNDSMPAHLHVRSYSPDWPHQPNKTFAFISNQPGE
modifications: left off: a dimerising Fc or GST
notes: extra-cellular portion of human Sp35 (residues 1-532) fused to the hinge and Fc region of human IgG1
B1 was tested, and the “differentiation of A2B5+ cells into O4+ cells” value [1] was “promoted differentiation of A2B5^+ cells into O4^+ cells in a concentration dependent manner”, the “differentiation of A2B5+ cells into O4+ cells” value ([1]; listed as LINGO-1-Fc) was “Dose-dependent differentiation” and the “number of activated-Caspase-3-positive neurons and oligodendrocytes versus controls” value ([2]; 3 days after SCI, 0.25 μl/h of 25 μM intrathecal) was “significantly smaller”. For the same molecule, the “neuron and oligodendrocyte survival around the lesion site (anti-βIII-tubulin, anti-O4)” value ([2]; four weeks after SCI) was “more neurons and oligodendrocytes survived”.

Reference: patent publication US8486893B2, “Treatment of conditions involving demyelination” (Biogen Idec MA Inc., priority 2004, dated 2013)
